Paper PMC11252414, “Enhancing the performance of porous silicon biosensors: the interplay of nanostructure design and microfluidic integration”

Columns and labels:
Conditions in all cases: protein: commercial; label: none; single strand
lactoferrin (LF) [1] = target: T1, lactoferrin (LF) (bovine (milk), UniProt P24627 20-708); experiment: RIFTS (porous Si interferometry); cell setup, selection buffer, Tris-passivated, 1 mM Mg2+; apparent; Selection buffer: PBS (137 mM NaCl, 10 mM Na2HPO4, 2.7 mM KCl, 2 mM KH2PO4) + 1 mM MgCl2, pH 7.4, room temperature; GI fluid at 37 C
T1 sequence (P24627 20-708): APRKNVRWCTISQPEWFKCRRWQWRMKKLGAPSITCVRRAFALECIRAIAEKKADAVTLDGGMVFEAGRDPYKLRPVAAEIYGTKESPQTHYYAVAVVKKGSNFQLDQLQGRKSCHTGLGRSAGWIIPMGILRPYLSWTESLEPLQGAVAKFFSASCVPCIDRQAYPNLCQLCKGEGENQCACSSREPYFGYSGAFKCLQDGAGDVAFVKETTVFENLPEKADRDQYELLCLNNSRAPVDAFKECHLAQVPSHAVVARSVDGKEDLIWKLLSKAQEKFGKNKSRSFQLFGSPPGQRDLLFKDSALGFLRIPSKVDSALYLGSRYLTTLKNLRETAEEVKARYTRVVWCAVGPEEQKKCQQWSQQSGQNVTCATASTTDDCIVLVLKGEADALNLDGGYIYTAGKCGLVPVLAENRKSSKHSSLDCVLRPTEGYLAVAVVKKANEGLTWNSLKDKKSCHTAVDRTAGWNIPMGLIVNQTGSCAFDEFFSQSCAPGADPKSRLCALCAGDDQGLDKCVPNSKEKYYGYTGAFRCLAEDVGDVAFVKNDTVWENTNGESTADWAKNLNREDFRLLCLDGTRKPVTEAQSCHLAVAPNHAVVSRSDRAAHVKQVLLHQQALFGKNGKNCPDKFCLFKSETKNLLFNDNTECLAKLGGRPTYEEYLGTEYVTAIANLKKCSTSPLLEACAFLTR

lactoferrin (LF) [2] = target: T1, lactoferrin (LF); experiment: RIFTS (porous Si interferometry); SHM (herringbone) microchannel, 30 ul/min; Selection buffer: PBS (137 mM NaCl, 10 mM Na2HPO4, 2.7 mM KCl, 2 mM KH2PO4) + 1 mM MgCl2, pH 7.4, room temperature; GI fluid at 37 C
lactoferrin (LF) [3] = target: T1, lactoferrin (LF); experiment: RIFTS (porous Si interferometry); impeller-integrated microchannel, 30 ul/min; Selection buffer: PBS (137 mM NaCl, 10 mM Na2HPO4, 2.7 mM KCl, 2 mM KH2PO4) + 1 mM MgCl2, pH 7.4, room temperature; GI fluid at 37 C
lactoferrin (LF) [4] = target: T1, lactoferrin (LF); experiment: RIFTS (porous Si interferometry); plain microchannel, 30 ul/min; Selection buffer: PBS (137 mM NaCl, 10 mM Na2HPO4, 2.7 mM KCl, 2 mM KH2PO4) + 1 mM MgCl2, pH 7.4, room temperature; GI fluid at 37 C
lactoferrin (LF) [5] = target: T1, lactoferrin (LF); experiment: RIFTS (porous Si interferometry); PEG-passivated, LF-spiked porcine GI fluid, 37 C; apparent, LOD 600 nM suggests uM; Selection buffer: PBS (137 mM NaCl, 10 mM Na2HPO4, 2.7 mM KCl, 2 mM KH2PO4) + 1 mM MgCl2, pH 7.4, room temperature; GI fluid at 37 C

B1: Lac 9-2 anti-LF aptamer with T10 spacer (ssDNA)
DNA: CAGGCAGGACACCGTAACCGGTGCATCTATGGCTACTAGCTCTTCCTGCCTATTTTTTTTTT
modifications: 3'-amino, coupled via NHS/EDC to carboxylated porous Si
Kd (lactoferrin (LF) [1]): 2100 ± 900 nM
Kd (lactoferrin (LF) [2]): 1600 ± 600 nM
Kd (lactoferrin (LF) [3]): 1300 ± 600 nM
Kd (lactoferrin (LF) [4]): 2000 ± 1000 nM
Kd (lactoferrin (LF) [5]): 11.8 ± 1.9 nM
